Results reported in US20140086935A1 (Bayer, published 2014).
Where a chain is given by its changes, count along the chain named.

B1: MS-BW-40 (Fab, V domains shown)
VH: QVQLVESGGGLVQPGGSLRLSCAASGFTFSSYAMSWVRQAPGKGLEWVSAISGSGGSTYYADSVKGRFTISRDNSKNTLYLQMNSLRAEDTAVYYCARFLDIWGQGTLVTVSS
VL: DIALTQPASVSGSPGQSITISCTGTSSDVGGYNYVSWYQQHPGKAPKLMIYDVSNRPSGVSNRFSGSKSGNTASLTISGLQAEDEADYYCQSYDYQQFTVFGGGTKLTVLG
notes: Fab: heavy chain of MS-BW-3 with light chain of MS-BW-1; not tied by name
B2: MS-BW-41 (Fab, V domains shown)
VH: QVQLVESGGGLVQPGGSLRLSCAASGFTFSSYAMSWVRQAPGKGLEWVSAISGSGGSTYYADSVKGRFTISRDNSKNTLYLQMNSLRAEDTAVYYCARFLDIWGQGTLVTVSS
VL: B1 VL with Y95F, Q96K, Q97T, F98Y, T99L
notes: Fab: heavy chain of MS-BW-3 with light chain of MS-BW-2; not tied by name
B3: MS-BW-57 (Fab, V domains shown)
VH: QVQLVQSGAEVKKPGESLKISCKGSGYSFTSYWIGWVRQMPGKGLEWMGIIYPGDSDTRYSPSFQGQVTISADKSISTAYLQWSSLKASDTAMYYCARLYPEDLIYFDYWGQGTLVTVSS
VL: B1 VL with Y93W, Y95V, Q97T, F98D, T99K
notes: Fab, FLAG + Strep-tag II; not tied by name
B4: MS-BW-59 (Fab, V domains shown)
VH: QVQLVQSGAEVKKPGESLKISCKGSGYSFTSYWIGWVRQMPGKGLEWMGIIYPGDSDTRYSPSFQGQVTISADKSISTAYLQWSSLKASDTAMYYCARLRVHDYAMYFDLWGQGTLVTVSS
VL: B1 VL with Y95I, Q96M, Q97P, F98E, T99R
notes: as for B3
B5: MS-BW-61 (Fab, V domains shown)
VH: B3 VH with L99I, Y100I, P101G, E102D, D103Y, L104V, Y106F, Y109V
VL: B1 VL with Y93F, Y95M, Q96I, Q97H, F98P, T99Y
notes: as for B3
B6: MS-BW-60 (Fab, V domains shown)
VH: QVQLVQSGAEVKKPGESLKISCKGSGYSFTSYWIGWVRQMPGKGLEWMGIIYPGDSDTRYSPSFQGQVTISADKSISTAYLQWSSLKASDTAMYYCARFVSYNGSVPYFDYWGQGTLVTVSS
VL: B1 VL with Y93M, Y95F, Q96R, Q97L, F98M, T99H
notes: as for B3
B7: MS-BW-36 (Fab, V domains shown)
VH: QVQLVQSGAEVKKPGESLKISCKGSGYSFTSYWIGWVRQMPGKGLEWMGIIYPGDSDTRYSPSFQGQVTISADKSISTAYLQWSSLKASDTAMYYCARYRYPHMFDFWGQGTLVTVSS
VL: DIELTQPPSVSVAPGQTARISCSGDALGDKYASWYQQKPGQAPVLVIYDDSDRPSGIPERFSGSNSGNTATLTISGTQAEDEADYYCQSYDLRYSHVFGGGTKLTVLG
notes: as for B3
B8: MS-BW-56 (Fab, V domains shown)
VH: QVQLVQSGAEVKKPGSSVKVSCKASGGTFSSYAISWVRQAPGQGLEWMGGIIPIFGTANYAQKFQGRVTITADESTSTAYMELSSLRSEDTAVYYCARQEWYMDYWGQGTLVTVSS
VL: DIELTQPPSVSVAPGQTARISCSGDALGDKYASWYQQKPGQAPVLVIYDDSDRPSGIPERFSGSNSGNTATLTISGTQAEDEADYYCQSYDRSMWVFGGGTKLTVLG
notes: as for B3
B9: MS-BW-32 (Fab, V domains shown)
VH: QVQLVQSGAEVKKPGSSVKVSCKASGGTFSSYAISWVRQAPGQGLEWMGGIIPIFGTANYAQKFQGRVTITADESTSTAYMELSSLRSEDTAVYYCARTKYVGSEDVWGQGTLVTVSS
VL: DIALTQPASVSGSPGQSITISCTGTSSDVGGYNYVSWYQQHPGKAPKLMIYDVSNRPSGVSNRFSGSKSGNTASLTISGLQAEDEADYYCQSYDFSHYFFVFGGGTKLTVLG
notes: as for B3
B10: MS-BW-55 (Fab, V domains shown)
VH: QVQLVQSGAEVKKPGSSVKVSCKASGGTFSSYAISWVRQAPGQGLEWMGWINPNSGGTNYAQKFQGRVTMTRDTSISTAYMELSSLRSEDTAVYYCARITYIGYDFWGQGTLVTVSS
VL: B9 VL with Y93R, F95L, S96Y, H97Y, Y98V, F99Y, F100Y
notes: as for B3

These binders were tested against T1, human TIMP-1 (human, UniProt P01033 24-207) (assay: cell-based or functional assay).

IC50 in human protease assay	Binder
> 100 nM	B1
29 nM	B2

These binders were tested against T2, rat TIMP-1 (rat, UniProt P30120 24-217) (assay: cell-based or functional assay).
T2 sequence (P30120 24-217 limits assumed): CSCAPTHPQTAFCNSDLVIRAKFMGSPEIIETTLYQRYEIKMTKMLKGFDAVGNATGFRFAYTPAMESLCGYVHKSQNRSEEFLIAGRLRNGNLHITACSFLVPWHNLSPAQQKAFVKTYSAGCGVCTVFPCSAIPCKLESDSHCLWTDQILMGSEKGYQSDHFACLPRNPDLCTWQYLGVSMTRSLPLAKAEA

IC50 in rat protease assay	Binder
~60 nM	B3
30 nM	B4
> 100 nM	B5
> 100 nM	B6
~75 nM	B7
> 100 nM	B8
> 100 nM	B9
~100 nM	B10

These binders were tested against T1, human TIMP-1 (assay: SPR (BIAcore), TIMP-1 coupled to chip, monovalent Fab).
Procedure: (§1) For affinity determination, monomeric fractions of affinity and SEC purified Fab fragments or purified IgG1 molecules were used. All experiments were conducted in HBS buffer at a flow rate of 20 μl/min at 25° C. on a BIAcore™ instrument. Antigens in 100 mM sodium acetate pH 5.0 were coupled to a CM 5 sensor chip using standard EDC-NHS coupling chemistry. […] All sensograms were fitted globally using BIA evaluation software. For monovalent Fab fragments a monovalent fit (Langmuir binding) and for IgGs a bivalent fit was applied.

Kd	Binder
~49 nM	B1
~6 nM	B2

These binders were tested against T2, rat TIMP-1 in the same assay as above.
Procedure: as §1

Kd	Binder
~39 nM	B3
~15 nM	B4
~51 nM	B5
~30 nM	B6
~42 nM	B7
~170 nM	B8
~92 nM	B9
~23 nM	B10
